B1: FLT3 (protein)
chain: HKYKKQFRYESQLQMVQVTGSSDNEYFYVDFREYEYDLKWEFPRENLEFGKVLGSGAFGKVMNATAYGISKTGVSIQVAVKMLKEKADSSEREALMSELKMMTQLGSHENIVNLLGACTLSGPIYLIFEYCCYGDLLNYLRSKREKFHRTWTEIFKEHNFSFYPTFQSHPNSSMPGSREVQIHPDSDQISGLHGNSFHSEDEIEYENQKRLEEEEDLNVLTFEDLLCFAYQVAKGMEFLEFKSCVHRDLAARNVLVTHGKVVKICDFGLARDIMSDSNYVVRGNARLPVKWMAPESLFEGIYTIKSDVWSYGILLWEIFSLGVNPYPGIPVDANFYKLIQNGFKMDQPFYATEEIYIIMQSCWAFDSRKRPSFPNLTSFLGCQLADAEEAMYQNVDGRVSECPHTYQNRRPFSREMDLGLLSPQAQVEDS
B2: FGFR3 (protein)
chain: RLRSPPKKGLGSPTVHKISRFPLKRQVSLESNASMSSNTPLVRIARLSSGEGPTLANVSELELPADPKWELSRARLTLGKPLGEGCFGQVVMAEAIGIDKDRAAKPVTVAVKMLKDDATDKDLSDLVSEMEMMKMIGKHKNIINLLGACTQGGPLYVLVEYAAKGNLREFLRARRPPGLDYSFDTCKPPEEQLTFKDLVSCAYQVARGMEYLASQKCIHRDLAARNVLVTEDNVMKIADFGLARDVHNLDYYKKTTNGRLPVKWMAPEALFDRVYTHQSDVWSFGVLLWEIFTLGGSPYPGIPVEELFKLLKEGHRMDKPANCTHDLYMIMRECWHAAPSQRPTFKQLVEDLDRVLTVTSTDEYLDLSAPFEQYSPGGQDTPSSSSSGDDSVFAHDLLPPAPPSSGGSRT
B3: FGFR4 (protein)
chain: RGQALHGRHPRPPATVQKLSRFPLARQFSLESGSSGKSSSSLVRGVRLSSSGPALLAGLVSLDLPLDPLWEFPRDRLVLGKPLGEGCFGQVVRAEAFGMDPARPDQASTVAVKMLKDNASDKDLADLVSEMEVMKLIGRHKNIINLLGVCTQEGPLYVIVECAAKGNLREFLRARRPPGPDLSPDGPRSSEGPLSFPVLVSCAYQVARGMQYLESRKCIHRDLAARNVLVTEDNVMKIADFGLARGVHHIDYYKKTSNGRLPVKWMAPEALFDRVYTHQSDVWSFGILLWEIFTLGGSPYPGIPVEELFSLLREGHRMDRPPHCPPELYGLMRECWHAAPSQRPTFKQLVEALDKVLLAVSEEYLDLRLTFGPYSPSGGDASSTCSSSDSVFSHDPLPLGSSSFPFGSGVQT
B4: FLT1(VEGFR1) (protein)
chain: RKMKRSSSEIKTDYLSIIMDPDEVPLDEQCERLPYDASKWEFARERLKLGKSLGRGAFGKVVQASAFGIKKSPTCRTVAVKMLKEGATASEYKALMTELKILTHIGHHLNVVNLLGACTKQGGPLMVIVEYCKYGNLSNYLKSKRDLFFLNKDAALHMEPKKEKMEPGLEQGKKPRLDSVTSSESFASSGFQEDKSLSDVEEEEDSDGFYKEPITMEDLISYSFQVARGMEFLSSRKCIHRDLAARNILLSENNVVKICDFGLARDIYKNPDYVRKGDTRLPLKWMAPESIFDKIYSTKSDVWSYGVLLWEIFSLGGSPYPGVQMDEDFCSRLREGMRMRAPEYSTPEIYQIMLDCWHRDPKERPRFAELVEKLGDLLQANVQQDGKDYIPINAILTGNSGFTYSTPAFSEDFFKESISAPKFNSGSSDDVRYVNAFKFMSLERIKTFEELLPNATSMFDDYQGDSSTLLASPMLKRFTWTDSKPKASLKIDLRVTSKSKESGLSDVSRPSFCHSSCGHVSEGKRRFTYDHAELERKIACCSPPPDYNSVVLYSTPPI
B5: FGFR2 (protein)
chain: RMKNTTKKPDFSSQPAVHKLTKRIPLRRQVTVSAESSSSMNSNTPLVRITTRLSSTADTPMLAGVSEYELPEDPKWEFPRDKLTLGKPLGEGCFGQVVMAEAVGIDKDKPKEAVTVAVKMLKDDATEKDLSDLVSEMEMMKMIGKHKNIINLLGACTQDGPLYVIVEYASKGNLREYLRARRPPGMEYSYDINRVPEEQMTFKDLVSCTYQLARGMEYLASQKCIHRDLAARNVLVTENNVMKIADFGLARDINNIDYYKKTTNGRLPVKWMAPEALFDRVYTHQSDVWSFGVLMWEIFTLGGSPYPGIPVEELFKLLKEGHRMDKPANCTNELYMMMRDCWHAVPSQRPTFKQLVEDLDRILTLTTNEEYLDLSQPLEQYSPSYPDTRSSCSSGDDSVFSPDPMPYEPCLPQYPHINGSVKT

Molecular target: T1, Bovine, dephosphorylated, Myelin Basic Protein (MBP), P02687
T1 chain: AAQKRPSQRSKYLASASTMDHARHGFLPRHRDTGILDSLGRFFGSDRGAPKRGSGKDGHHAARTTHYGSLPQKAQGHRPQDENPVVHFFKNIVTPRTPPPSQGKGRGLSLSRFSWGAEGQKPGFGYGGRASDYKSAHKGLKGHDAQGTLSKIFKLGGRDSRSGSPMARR

MBP Kinase Activity, Strong:
B1, B2, B3, B4, B5

— US20090099029
